Values quoted from earlier work, collected in paper PMC6535718.

Target: Bfd (Pseudomonas aeruginosa) (UniProt Q9HY80)
Sequence (Q9HY80 whole entry): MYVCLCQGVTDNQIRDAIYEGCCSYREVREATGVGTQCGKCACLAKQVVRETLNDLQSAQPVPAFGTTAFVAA

BfrB, sequence (Q9HY79 whole entry): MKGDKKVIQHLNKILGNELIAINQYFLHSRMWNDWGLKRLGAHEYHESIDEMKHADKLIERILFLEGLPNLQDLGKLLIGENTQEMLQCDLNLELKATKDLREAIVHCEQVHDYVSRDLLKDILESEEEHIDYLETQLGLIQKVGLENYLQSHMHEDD

Substance: BfrB (from UniProt Q9HY79)
- Kd: 3.4 µM
